Assay results taken from the supplement of paper PMC10567573.

B1: ANKRD40 (parent)
chain: VCCCELGVNPDQVEKIRKLPNTLL
B2: SNX8 (parent)
chain: RMVPALPPKRMLGADREFIEARRR

Variants of: B1
Test: protein stability index of a GFP-peptide fusion (GPS, HEK-293T) (PSI 1-6); higher = more stable
Details: c terminus: a fixed tail appended
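Note: lentivirally expressed fusions sorted by FACS into six bins by GFP to DsRed ratio, PSI derived from sequencing read proportions per bin multiplied by bin number.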

Protein stability index, by site and new letter:
K15: R 2.21, G 1.41, H 1.36, N 1.94, P 2.07, M 1.76, F 2.06, C 1.33, Q 2.23
N9: G 1.96, D 2.01, Q 1.62, W 2.8, K 2.33, Y 1.78, I 1.88, V 1.75, M 2.23, E 1.7, P 2, T 1.68
L19: Q 2.5, W 2.73, A 2.12, G 3.13, V 2.62, F 1.57, C 2.34, M 2.1, D 2.9, S 2.17, P 1.91, K 2.48
V1: H 2.21, M 2, T 1.71, P 1.41, Q 2.19, I 1.2, R 1.99, G 1.68, N 2.31, E 2.83, C 1.96, K 2.35
Q12: F 2.14, G 2.07, W 2.29, D 2.29, C 2.06, M 2.03, P 1.86, L 2.52, T 1.76, A 2.09, E 2.16, K 1.76, N 1.75, R 1.67, Y 1.21
C3: P 1.97, M 2.29, A 2.42, I 1.69, N 1.82, Y 2.27, S 2.09, G 2.19, E 2.77
V13: Y 1.84, S 2.05, L 1.64, F 1.4, D 3.11, K 2.25, Q 2.42, A 1.71, C 1.91, I 1.75, W 2.07

Variants of: B2
Test: as above
Details: c terminus: a fixed tail appended

Protein stability index, by site and new letter:
P4: C 3.62, I 2.52, M 3.1, A 3.32, R 4.13, L 2.28, W 2.77, Y 3.31, E 3.67, H 3.09, K 3.81, F 2.98, S 3.69, Q 3.49, N 3.41, V 3.58, G 3.87, D 3.57, T 3.34
V3: M 1.29, L 1.85, T 4.1, H 3.54, D 4.63, K 4.11, W 1.7, Q 3.9, Y 2.96, N 4.08, S 3.88, E 4.49, G 3.07, C 3.5, F 2.99, R 3.94, A 3.31, P 3.81, I 2.38
R1: F 2.22, L 1.96, E 3.56, Y 1.81, I 3.21, V 3.18, Q 3.54, P 3.83, T 2.69, N 2.71, W 1.94, A 3.86, D 2.87, H 2.3, G 3.77, K 3.74, S 3.8, C 3.28, M 2.88
A5: N 4.08, I 3.2, D 4.23, G 3.84, K 3.77, E 4.12, C 3.85, F 3.24, H 3.75, L 4, M 3.49
M2: R 3.94, Q 4.57, W 2.14, A 3.94, Y 3.57, E 4.52, V 3.58, S 4.46, G 3.83, K 4.1, L 2.76, P 4.53, D 4.17, H 4.04, F 3.44, N 3.99, I 3.01, C 3.22, T 4.08
